Assay results published in article PMC10154539 (Cell Reports, 2023).
Where a chain is given by its changes, count along the chain named.

B1: XG005a (antibody, V domains shown)
VH: QITLKESGPTLVKPTQTLTLTCTFSGFSLSTSGVGVGWIRQPPGKALEWLALIYWDNDKRYSPSLKSRLTITMDTSKNQVVLTMTNMDPVDTATYYCARLPSTDTIFDYWGQGALVTVSS
VL: QSALTQPASVSGSPGQSITVSCTGTSSDVGDYNYVSWYQQHPGKAPKLMIYDVSKRPSGVSNRFSGSKSGKTASLTISGLQAEDEADYYCSSYTSTSVVFGGGTKLTVL
B2: XG005c (antibody, V domains shown)
VH: B1 VH with N57D, M73K, L82V, S102A, Y109S, A114T
VL: B1 VL with V20I, D31A, K71Y, A82P, Y89F, S95T
B3: XG005 (antibody, V domains shown)
VH: QVTLRESGPTLVKPKQTLTLTCTFSGFSLSTPGGGVGWIRQPPGKALEWLALIYWDDDKRYSPSLKSSLTITKDTSKNQVVLTMTNMDPVDTATYYCARLTAADTIFDCWGQGTLVTVSS
VL: B1 VL with Q16L, V20I, G24A, D31A, K44Q, G70A, K71N, S95T

How the values were obtained:
[1] = target: T1, S-ECD protein of SARS-CoV-2 Omicron (B.1.1.529) (SARS-CoV-2 B.1.1.529 (Omicron), strain); assay: ELISA
[2] = target: T1, S-ECD protein of SARS-CoV-2 Omicron …; assay: cell-based or functional assay
[3] = target: SARS-CoV-2 Spike protein (ECD, His & FLAG tag), Wuhan-Hu-1 (wild-type) (SARS-CoV-2 Wuhan-Hu-1, UniProt P0DTC2); assay: ELISA

Binder | ELISA AUC [1] | IC50 of neutralization of Omicron pseudovirus, Huh-7 cells, luciferase [2] [µg/mL] | binding result [3]
B1 | ~26 | > 10 | 
B2 | ~30 | 2 | 
B3 | ~30 |  | binds
